In article doi:10.1101/597906:
Read-outs that look alike come from different tables or passages of the source.

Columns and labels:
polymerized microtubules [1] = experiment: single-molecule TIRF microscopy motility assay
polymerized microtubules [2] = experiment: single-molecule TIRF microscopy motility assay; remark: listed apart in the source

| landing rate (molecules bound to microtubules per length and time) (polymerized microtubules [1]) | landing rate (molecules bound to microtubules per length and time) (polymerized microtubules [2]) | Substance |
| --- | --- | --- |
| 0.002 /μm/sec | 0.012 /μm/sec | full-length human KIF1A fused to a C-terminal mScarlet-strepII tag (from UniProt Q12756 1-1690) (natural protein) |
| 0.024 /μm/sec | – | full-length human KIF1A(A255V) fused to a C-terminal mScarlet-strepII tag (from UniProt Q12756 1-1690) (natural protein) |
| 0.025 /μm/sec | – | full-length human KIF1A(R350G) fused to a C-terminal mScarlet-strepII tag (from UniProt Q12756 1-1690) (natural protein) |
| 0.039 /μm/sec | – | full-length human KIF1A(V8M) fused to a C-terminal mScarlet-strepII tag (from UniProt Q12756 1-1690) (natural protein) |
